Data: paper PMC2911655

Substrate: CCCCCCCC/C=C\CCCCCCCC(=O)OCC(O)CO
Experiment: glycerol release, enzymatic glycerol kit, saturation curve
Format: biochemical, Saccharomyces cerevisiae
Conditions: pH 7.5, 37 °C, 20 min, substrate complexed to defatted BSA 1:1

B1: Yju3p (Saccharomyces cerevisiae S288C) (protein)
chain: MAPYPYKVQTTVPELQYENFDGAKFGYMFWPVQNGTNEVRGRVLLIHGFGEYTKIQFRLMDHLSLNGYESFTFDQRGAGVTSPGRSKGVTDEYHVFNDLEHFVEKNLSECKAKGIPLFMWGHSMGGGICLNYACQGKHKNEISGYIGSGPLIILHPHTMYNKPTQIIAPLLAKFLPRVRIDTGLDLKGITSDKAYRAFLGSDPMSVPLYGSFRQIHDFMQRGAKLYKNENNYIQKNFAKDKPVIIMHGQDDTINDPKGSEKFIQDCPSADKELKLYPGARHSIFSLETDKVFNTVFNDMKQWLDKHTTTEAKP
- Km: 260 µM
